Target: Recombinant FEN-1 (pET-FEN-1) (human, UniProt P39748 1-380)
Assay: pull-down

Chain of Recombinant FEN-1 (pET-FEN-1) (P39748 whole entry): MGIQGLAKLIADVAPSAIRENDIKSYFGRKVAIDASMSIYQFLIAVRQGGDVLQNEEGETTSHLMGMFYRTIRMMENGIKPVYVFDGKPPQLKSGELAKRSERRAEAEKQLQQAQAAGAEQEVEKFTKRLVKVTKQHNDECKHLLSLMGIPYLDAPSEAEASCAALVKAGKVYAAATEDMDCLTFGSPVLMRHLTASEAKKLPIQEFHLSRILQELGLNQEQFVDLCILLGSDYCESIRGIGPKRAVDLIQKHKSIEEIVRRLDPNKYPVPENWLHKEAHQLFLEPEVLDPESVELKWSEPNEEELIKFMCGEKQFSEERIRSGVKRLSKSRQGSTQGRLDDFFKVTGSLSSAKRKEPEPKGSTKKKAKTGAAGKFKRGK

Row | binding result | Binder
1 | binds | GST-RECQ1 C-terminal domain (residues 592-649) (domain or fragment, human, UniProt P46063 592-649, looked up) KSTQNSFRAESSQTCHSEQGDKKMEEKNSGNFQKKAANMLQQSGSKNTGAKKRKIDDA
2 | binds | GST-RECQ1 RQC domain (residues 418-592) (domain or fragment, human, UniProt P46063 418-592, looked up) YGFGDIFRISSMVVMENVGQQKLYEMVSYCQNISKCRRVLMAQHFDEVWNSEACNKMCDNCCKDSAFERKNITEYCRDLIKILKQAEELNEKLTPLKLIDSWMGKGAAKLRVAGVVAPTLPREDLEKIIAHFLIQQYLKEDYSFTAYATISYLKIGPKANLLNNEAHAITMQVTK
